Experimental findings from patent publication US20210155689A1 (SHANGHAI PHARMAEXPLORER, published 2021) are described below.

Positions count from the first letter of the chain named.

The target of experiment [1] is T1, monkey LAG-3 on cells (HEK293-cLAG-3 stable cell line) (monkey, UniProt P18627 24-525 (human entry)).
T1 construct: Full-length monkey (Chinese monkey) LAG-3 gene expressed on HEK293 cells
T1 chain: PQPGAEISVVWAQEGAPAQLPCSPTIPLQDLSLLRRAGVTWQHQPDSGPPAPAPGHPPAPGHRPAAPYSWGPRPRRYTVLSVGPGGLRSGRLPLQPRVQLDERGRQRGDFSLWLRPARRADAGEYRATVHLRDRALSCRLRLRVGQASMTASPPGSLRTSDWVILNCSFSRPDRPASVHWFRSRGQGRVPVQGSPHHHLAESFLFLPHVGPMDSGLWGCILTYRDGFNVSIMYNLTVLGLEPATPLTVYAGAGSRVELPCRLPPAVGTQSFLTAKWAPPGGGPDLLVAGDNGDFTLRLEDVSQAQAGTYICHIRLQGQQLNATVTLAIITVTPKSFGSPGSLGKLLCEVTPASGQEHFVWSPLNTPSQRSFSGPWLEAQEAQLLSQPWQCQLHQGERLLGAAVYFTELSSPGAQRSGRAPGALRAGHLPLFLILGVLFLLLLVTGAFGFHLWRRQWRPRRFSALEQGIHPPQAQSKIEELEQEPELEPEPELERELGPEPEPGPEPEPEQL
The experiment in a line: FACS, HEK293-cLAG-3, antibody 0.000 nM. The text has this:
The pIRES plasmid with the monkey-derived full-length gene was transfected into the HEK293 cell line to construct a HEK293 stable cell line containing monkey LAG-3 (herein referred to as HEK293-cLAG-3 stable cell line). The HEK293-hLAG-3 stable cell line and HEK293-cLAG-3 stable cell line were expanded in a T-75 cell culture flask to a 90% confluence. The medium was aspirated, and the cells were washed with HBSS (Hanks' Balanced Salt Solution) 1-2 times, then treated with a enzyme-free cell dissociation fluid (Versene solution: Life technology) and the cells were collected. The cells were washed with HBSS buffer for 1-2 times. After counted, the cells were diluted with HBSS to 1-2×10⁶ cells per ml, added with 1% goat serum blocking solution, incubated on ice for 20-30 minutes, and then washed with HBSS for 2 times by centrifugation. The collected cells were suspended in the FACS buffer (HBSS+1% BSA) to 2×10⁶ cells/ml, added as 100 microliters per well to a 96-well FACS reaction plate, added with 100 microliters per well of the antibody sample to be tested, incubated on ice for 1-2 hours. The plate was washed twice with the FACS buffer by centrifugation, added with 100 microliters of fluorescent (Alexa 488)-labeled secondary antibodies per well, and incubated on ice for 0.5-1.0 hours. The plate was washed 2-3 times with FACS buffer by centrifugation, added with 100 μl fixative solution (4% Paraformaldehyde) per well to suspend the cells. 5-10 minutes later, it was washed 1-2 times with FACS buffer by centrifugation. The cells were suspended with 100 microliters of FACS buffer, FACS (FACSCalibur, BD) was used for detection and the results were analyzed.
(In flow cytometry, cells or beads pass a laser one at a time.)

In experiment [2] the target is T2, LAG-3-hFc protein (human LAG-3 extracellular region with hFc tag) (human, UniProt P18627 23-450).
T2 construct: also called hLAG-3-hFc; LAG-3 protein; not shown: human IgG Fc fragment (hFc) of the pCpC vector
T2 sequence: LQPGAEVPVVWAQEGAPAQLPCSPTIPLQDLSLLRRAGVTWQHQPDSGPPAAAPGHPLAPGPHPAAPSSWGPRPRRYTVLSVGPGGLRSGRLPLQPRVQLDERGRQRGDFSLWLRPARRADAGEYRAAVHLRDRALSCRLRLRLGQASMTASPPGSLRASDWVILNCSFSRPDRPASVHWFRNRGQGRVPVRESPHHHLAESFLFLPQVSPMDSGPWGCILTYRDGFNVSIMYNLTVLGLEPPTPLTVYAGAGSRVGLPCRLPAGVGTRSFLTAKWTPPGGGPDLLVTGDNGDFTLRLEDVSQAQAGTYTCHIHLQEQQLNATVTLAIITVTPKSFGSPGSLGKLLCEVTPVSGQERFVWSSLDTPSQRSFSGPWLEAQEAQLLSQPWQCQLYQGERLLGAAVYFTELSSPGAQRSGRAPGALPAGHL
The experiment in a line: FACS, inhibition of LAG-3-hFc binding to MHC II on Raji cells, antibody 7.407 nM. Here is the method:
The FACS reaction plate incubating the Raji cells was centrifuged to discard the supernatant. The above mixture was added as 100 μl per well to Raji cells and incubated on ice for 1-2 hours. The plate was washed twice with blocking solution (PBS, 2% fetal bovine serum) by centrifugation, added with 100 microliters of fluorescent (Alexa 488)-labeled secondary antibodies per well, and incubated on ice for 1.0 hours. The plate was washed 2-3 times by centrifugation with blocking solution (PBS, 2% fetal bovine serum), added with 100 microliters of PBS per well to suspend cells, and detected using FACS (FACS Calibur, BD) and the results were analyzed. Wherein, the IgG control was murine IgG, and the data in the table is the inhibition rate (%).

Experiment [3] addresses T3, mouse LAG-3 protein with hFc tag (mLAG-3-hFc protein) (mouse; human, UniProt Q61790 24-442).
T3 construct: Made in HEK293 cells; also called mouse LAG-3 extracellular domain protein; not shown: human IgG Fc fragment (hFc) of the pCpC vector
T3 sequence: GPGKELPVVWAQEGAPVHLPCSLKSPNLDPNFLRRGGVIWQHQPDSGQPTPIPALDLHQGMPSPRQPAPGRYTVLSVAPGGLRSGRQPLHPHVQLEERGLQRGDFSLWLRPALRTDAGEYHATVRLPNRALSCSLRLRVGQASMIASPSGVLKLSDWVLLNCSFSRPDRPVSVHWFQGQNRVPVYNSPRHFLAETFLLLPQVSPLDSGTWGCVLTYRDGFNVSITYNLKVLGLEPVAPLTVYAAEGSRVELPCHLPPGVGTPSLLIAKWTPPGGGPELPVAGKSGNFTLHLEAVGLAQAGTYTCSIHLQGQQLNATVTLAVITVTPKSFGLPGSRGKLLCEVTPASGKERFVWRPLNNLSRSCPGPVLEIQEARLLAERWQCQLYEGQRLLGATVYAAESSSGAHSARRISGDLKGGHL
The experiment in a line: ELISA, mLAG-3-hFc coated; 0.6667 nM. As for the experimental part:
The plate was sealed with plastic film and incubated overnight at 4° C. The plate was washed 2 times with the plate washing solution (PBS+0.01% Tween20) on the next day, and added with the blocking solution (PBS+0.01% Tween20+1% BSA) and blocked at room temperature for 1-2 hours. The blocking solution was poured out, and the plate was added with 50-100 μl of the antibody sample to be tested to each well, incubated at 37° C. for 1-2 hours, and washed 2-3 times with a plate washing solution (PBS+0.01% Tween20). HRP (horseradish peroxidase) labeled secondary antibody was added, and the plate was incubated at 37° C. for 1-2 hours, and washed 2-3 times with a plate washing solution (PBS+0.01% Tween20). 100 μl of TMB substrate was added to each well. After incubated at room temperature for 15-30 minutes, the plate was added with 100 μl of stop solution (1.0N HCl) to each well.
For orientation: In an ELISA, binding on a coated surface is turned into a signal by an enzyme label.

B1: 556F6B8 mouse-human chimeric antibody (antibody, V domains shown)
VH: RVQLKQSGPGLVQPSQSLSITCTVSGFSLIKYGVHWVRQSPGEGLEWLGVIWRGGITDYNAAFMSRLSITKDNSKSQVFFKMNSLQADDTAIYYCAKWDGPLAMDYWGQGTSVTVSS
VL: DIVMTQSHKFLSTSVGDRVSITCKASQDVGTTVAWYQQKPGQSPKLLIYWASTRHTGVPDRFTGSGSGTDFTLTISNVQSEDLADYFCQQYSSYPYTFGGGTKLEIK
notes: also called mAb123-556F6B8; 556F8B8
In experiment [1], B1 yielded a Mean fluorescence intensity of 3.1. The “Inhibition rate (%)” value in experiment [2] came out at 82.7%.

B2: 556F6B8 (LAG-3 mouse-human chimeric antibody) (antibody, V domains shown)
VH: B1 VH
VL: B1 VL
notes: also called 556F8B8
In experiment [3], B2 displayed an OD450 of 0.15 OD450.

B3: 105F1E10 mouse-human chimeric antibody (antibody, V domains shown)
VH: EVQLQQSGPELVKPGASVKMSCRASGYTFTDFKMHWMKQSHGKSLEWIGYIAPNNGGTAYNQKFRGKATLTVNESSNTAYMELRSLTSEDSAVYYCVDWDDVDYWGQGTTLTVSS
VL: DIKMTQSPSSMYASLGERVTITCKASQDINSYLSWFQQKSGKSPKTLIYRANRLVDGVPSRFSGSGSGQDYSLTISSLEYEDMGIYYCLQYVEFPLTFGAGTKLELK
notes: also called mAb009-105F1E10
In experiment [1], B3 had a Mean fluorescence intensity of 2.72. In addition, the “Inhibition rate (%)” value in experiment [2] stood at 67%.

B4: 405B8H3 mouse-human chimeric antibody (antibody, V domains shown)
VH: QVQLQQSGAELVRPGASVTLSCKASGYTFTDYEMHWVKQTPVHGLEWIGATDPETGNSAYNQKFKGKAIMTADKSSSTAYMELRSLTSEDSAVYYCISTGWNDWGQGTSLTVSS
VL: B3 VL with S40P, N52D, V55L, E81G, V92D, L96Y, A100G, L106I
notes: also called mAb103-405B8H3
B4: the Mean fluorescence intensity in experiment [1] amounted to 2.9. Further, in experiment [2], the “Inhibition rate (%)” value was determined as 95.1%.

B5: 405B8H3 (LAG-3 mouse-human chimeric antibody) (antibody, V domains shown)
VH: B4 VH
VL: B3 VL with S40P, N52D, V55L, E81G, V92D, L96Y, A100G, L106I
notes: also called mouse-human chimeric antibody 405B8H3
B5 registered an OD450 in experiment [3] of 0.11 OD450.

B6: 105F1E10 (LAG-3 mouse-human chimeric antibody) (antibody, V domains shown)
VH: B3 VH
VL: B3 VL
In experiment [3], B6 displayed an OD450 of 0.09 OD450.

B7: 409D4E10 (LAG-3 mouse-human chimeric antibody) (antibody, V domains shown)
VH: B4 VH with Y27N, G56D, S58T, M70L, A72T, S98T, T99S
VL: B3 VL with S40P, V55L, V92N, L96Y, A100G, L106I
B7: the OD450 in experiment [3] was 0.11 OD450.

B8: 409D4E10 mouse-human chimeric antibody (antibody, V domains shown)
VH: B4 VH with Y27N, G56D, S58T, M70L, A72T, S98T, T99S
VL: B3 VL with S40P, V55L, V92N, L96Y, A100G, L106I
notes: also called mAb112-409D4E10
B8 returned a Mean fluorescence intensity in experiment [1] of 2.99. Further, the “Inhibition rate (%)” value in experiment [2] is 94.7%.

B9: 409B11E12 (LAG-3 mouse-human chimeric antibody) (antibody, V domains shown)
VH: B4 VH with P41T, G56S, N57Y, M70L, S98A
VL: B3 VL with I2L, S40P, V55L, V92D, L96Y, A100G, L106I
In turn, B9 displayed an OD450 in experiment [3] of 0.1 OD450.

B10: 409B11E12 mouse-human chimeric antibody (antibody, V domains shown)
VH: B4 VH with P41T, G56S, N57Y, M70L, S98A
VL: B3 VL with I2L, S40P, V55L, V92D, L96Y, A100G, L106I
notes: also called mAb104-409B11E12
In experiment [1], B10 returned a Mean fluorescence intensity of 2.84. Besides, the “Inhibition rate (%)” value in experiment [2] worked out at 95.1%.
